Assay results: publication PMC2289750 (The Journal of Cell Biology, 1992)

Target: T1, zyxin (chicken, UniProt Q04584 1-542, 125I (radioiodinated using Iodogen))
T1 sequence (looked up): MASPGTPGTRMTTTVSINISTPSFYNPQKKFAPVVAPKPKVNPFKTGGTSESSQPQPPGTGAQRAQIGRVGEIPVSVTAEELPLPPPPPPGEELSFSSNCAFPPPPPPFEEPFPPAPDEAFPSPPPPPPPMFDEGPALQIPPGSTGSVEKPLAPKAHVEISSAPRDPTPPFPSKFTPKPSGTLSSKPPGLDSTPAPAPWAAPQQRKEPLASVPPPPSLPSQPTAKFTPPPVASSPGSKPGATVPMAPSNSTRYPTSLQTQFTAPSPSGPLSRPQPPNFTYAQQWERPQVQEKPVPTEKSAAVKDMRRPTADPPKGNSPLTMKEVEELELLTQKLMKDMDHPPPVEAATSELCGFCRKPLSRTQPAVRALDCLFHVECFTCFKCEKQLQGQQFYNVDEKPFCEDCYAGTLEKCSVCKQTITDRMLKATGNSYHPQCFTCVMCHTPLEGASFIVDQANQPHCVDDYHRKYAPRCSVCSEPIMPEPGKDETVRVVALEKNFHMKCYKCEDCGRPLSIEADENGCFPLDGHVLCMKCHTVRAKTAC
Assay: far-Western, overlay or dot blot

B1: chicken Cysteine-Rich Protein (cCRP) (natural protein)
chain: MPNWGGGKKCGVCQKAVYFAEEVQCEGSSFHKSCFLCMVCKKNLDSTTVAVHGDEIYCKSCYGKKYGPKGYGYGMGAGTLSTDKGESLGIKYEEGQSHRPTNPNASRMAQKVGGSDGCPRCGQAVYAAEKVIGAGKSWHKSCFRCAKCGKSLESTTLADKDGEIYCKGCYAKNFGPKGFGFGQGAGALIHSQ
B1: binds.
